Experiments:
[1] = molecular target: human fibronectin (purified; plasma fibronectin used in the ELISA assays; purified Fibronectin protein from BIOPUR AG in Biacore) (human) (UniProt P02751); test: Biacore 3000, 7A8 captured on anti-mouse antibody, fibronectin injected at 15 nM-500 nM, 1:1 Langmuir fit
[2] = molecular target: human fibronectin (purified; plasma fibronectin used in the ELISA assays; purified Fibronectin protein from BIOPUR AG in Biacore) (human) (UniProt P02751); test: Biacore 3000, 7A8 captured on anti-mouse antibody, fibronectin injected at 20 nM-100 nM, 1:1 Langmuir fit
[3] = molecular target: human fibronectin (purified; plasma fibronectin used in the ELISA assays; purified Fibronectin protein from BIOPUR AG in Biacore) (human) (UniProt P02751); test: SPR, Biacore 3000, antibody captured on anti-mouse antibody on CM-5 chip, fibronectin in solution, 1:1 Langmuir fit, two experiments; lower end of the range from the two independent experiments; the text does not say which experiment
[4] = molecular target: human fibronectin (purified; plasma fibronectin used in the ELISA assays; purified Fibronectin protein from BIOPUR AG in Biacore) (human) (UniProt P02751); test: SPR, Biacore 3000, antibody captured on anti-mouse antibody on CM-5 chip, fibronectin in solution, 1:1 Langmuir fit, two experiments; upper end of the range from the two independent experiments; the text does not say which experiment

B1: 7A8 monoclonal antibody produced by hybridoma PTA-120971 (antibody, V domains shown)
VH: QVQLRESEPGLVAPSRSLSITCTVSGFSLTSYAVSWVRQPPGKGLEWLGVIWTGGGTNYNSALKSRLSISKDNSKNQVFLKMNSLQTDDTARYYCARYSNLYYAMDYWGQGTSVTVSS
VL: DIVMTQSQKFMSTSVGERVSITCKASQNVGTNVAWYQQKAGQSLELLIYGASNRHTGVPDRFTGSGSGTDFTLTITNVQSEDMTNYFCEQYRSYPLTFGGGSKLEIK
Work on B1 yielded a Kd [1] of 2.8 nM, a Kd [2] of 7.26 nM and a Kd [3] of 2.8 nM. The Kd [4] was 7.26 nM.

Source: patent US20160024194A1
